Measurements from ChEMBL document CHEMBL1687818, “Mechanistic studies of the inactivation of TEM-1 and P99 by NXL104, a novel non-beta-lactam beta-lactamase inhibitor” (Antimicrob Agents Chemother, 2010).

Substrate: C[C@]1(Cn2ccnn2)[C@H](C(=O)O)N2C(=O)C[C@H]2S1(=O)=O
Details: Enterobacter cloacae
Description: Activity of Enterobacter cloacae beta-lactamase P99 by spectrophotometry

B1: Beta-lactamase (Enterobacter cloacae), P05364 (protein)
chain: MMRKSLCCALLLGISCSALATPVSEKQLAEVVANTITPLMKAQSVPGMAVAVIYQGKPHYYTFGKADIAANKPVTPQTLFELGSISKTFTGVLGGDAIARGEISLDDAVTRYWPQLTGKQWQGIRMLDLATYTAGGLPLQVPDEVTDNASLLRFYQNWQPQWKPGTTRLYANASIGLFGALAVKPSGMPYEQAMTTRVLKPLKLDHTWINVPKAEEAHYAWGYRDGKAVRVSPGMLDAQAYGVKTNVQDMANWVMANMAPENVADASLKQGIALAQSRYWRIGSMYQGLGWEMLNWPVEANTVVEGSDSKVALAPLPVAEVNPPAPPVKASWVHKTGSTGGFGSYVAFIPEKQIGIVMLANTSYPNPARVEAAYHILEALQ
Km: 300 µM
